Assays:
[1] = biological target: T1, 3-alpha-hydroxysteroid dehydrogenase (Rattus norvegicus) (UniProt P23457); assay: Ratio of Vmax to Km for rat liver 3-alpha-HSD for formation of corresponding (R)-alcohol products
T1 sequence (whole entry): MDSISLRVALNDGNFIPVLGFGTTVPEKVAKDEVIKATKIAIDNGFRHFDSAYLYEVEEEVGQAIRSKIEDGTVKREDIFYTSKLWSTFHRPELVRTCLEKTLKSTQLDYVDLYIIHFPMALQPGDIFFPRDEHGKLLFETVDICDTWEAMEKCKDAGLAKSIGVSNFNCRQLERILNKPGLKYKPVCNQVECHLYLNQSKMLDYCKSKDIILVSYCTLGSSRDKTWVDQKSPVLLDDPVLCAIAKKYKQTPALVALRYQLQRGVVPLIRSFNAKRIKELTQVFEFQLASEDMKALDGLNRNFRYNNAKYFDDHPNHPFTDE

[2] = biological target: T1, 3-alpha-hydroxysteroid dehydrogenase (Rattus norvegicus); assay: Ratio of Vmax to Km for rat liver 3-alpha-HSD for formation of corresponding (S)-alcohol products
[3] = substrate: COc1ccc(C(C)=O)cc1; assay: (§1) Activity of rat liver 3-alpha-HSD assessed as formation of corresponding (S)-alcohol products per mg of protein
[4] = substrate: CC(=O)c1ccc(C#N)cc1; assay: as §1
[5] = substrate: CC(=O)c1ccc(Br)cc1; assay: as §1
[6] = substrate: CC(=O)c1ccc(N(C)C)cc1; assay: as §1
[7] = substrate: CC(=O)c1ccccc1; assay: as §1
[8] = substrate: CC(=O)c1ccc([N+](=O)[O-])cc1; assay: as §1
[9] = substrate: CC(=O)c1ccc(C)cc1; assay: as §1
[10] = substrate: CC(=O)c1ccc(N(C)C)cc1; assay: (§2) Activity of rat liver 3-alpha-HSD assessed as formation of corresponding (R)-alcohol products
[11] = substrate: CC(=O)c1ccc(C)cc1; assay: as §2
[12] = substrate: CC(=O)c1ccc(N(C)C)cc1; assay: (§3) Activity of rat liver 3-alpha-HSD assessed as formation of corresponding (R)-alcohol products per mg of protein
[13] = substrate: CC(=O)c1ccc(C)cc1; assay: as §3
[14] = substrate: COc1ccc(C(C)=O)cc1; assay: (§4) Activity of rat liver 3-alpha-HSD assessed as formation of corresponding (S)-alcohol products
[15] = substrate: CC(=O)c1ccc(C#N)cc1; assay: as §4
[16] = substrate: CC(=O)c1ccc(Br)cc1; assay: as §4
[17] = substrate: CC(=O)c1ccc(N(C)C)cc1; assay: as §4
[18] = substrate: CC(=O)c1ccccc1; assay: as §4
[19] = substrate: CC(=O)c1ccc([N+](=O)[O-])cc1; assay: as §4
[20] = substrate: CC(=O)c1ccc(C)cc1; assay: as §4

CC(=O)c1ccc(N(C)C)cc1
Ratio [1]: 0.09 µL/min
Ratio [2]: 0.41 µL/min

CC(=O)c1ccc(Br)cc1
Ratio [2]: 30.6 µL/min

CC(=O)c1ccc(C)cc1
Ratio [1]: 1.01 µL/min
Ratio [2]: 7.21 µL/min

CC(=O)c1ccc(C#N)cc1
Ratio [2]: 9440 µL/min

CC(=O)c1ccccc1
Ratio [2]: 49 µL/min

CC(=O)c1ccc([N+](=O)[O-])cc1
Ratio [2]: 61700 µL/min

COc1ccc(C(C)=O)cc1
Ratio [2]: 0.97 µL/min

B1: 3-alpha-hydroxysteroid dehydrogenase (Rattus norvegicus), P23457 (protein)
chain: MDSISLRVALNDGNFIPVLGFGTTVPEKVAKDEVIKATKIAIDNGFRHFDSAYLYEVEEEVGQAIRSKIEDGTVKREDIFYTSKLWSTFHRPELVRTCLEKTLKSTQLDYVDLYIIHFPMALQPGDIFFPRDEHGKLLFETVDICDTWEAMEKCKDAGLAKSIGVSNFNCRQLERILNKPGLKYKPVCNQVECHLYLNQSKMLDYCKSKDIILVSYCTLGSSRDKTWVDQKSPVLLDDPVLCAIAKKYKQTPALVALRYQLQRGVVPLIRSFNAKRIKELTQVFEFQLASEDMKALDGLNRNFRYNNAKYFDDHPNHPFTDE
Vmax [3]: 0.005 µmol/min
Vmax [4]: 1.08 µmol/min
Vmax [5]: 0.315 µmol/min
Vmax [6]: 0.009 µmol/min
Vmax [7]: 0.51 µmol/min
Vmax [8]: 1.13 µmol/min
Vmax [9]: 0.2 µmol/min
Km [10]: 19.2 mM
Km [11]: 13.2 mM
Vmax [12]: 0.002 µmol/min
Vmax [13]: 0.013 µmol/min
Km [14]: 5.59 mM
Km [15]: 0.11 mM
Km [16]: 10.3 mM
Km [17]: 21.9 mM
Km [18]: 10.4 mM
Km [19]: 0.02 mM
Km [20]: 27.7 mM
